Data as given in US5792742.
Where no end group is shown, it is not given here. [ ]: non-standard residue; d: D form. pGlu = O=C1CC[C@@H](C(=O)O)N1

How the values were obtained:
[1] = molecular target: fibrin (fibrinogen dried on microtiter wells and converted with thrombin); experiment: competitive ELISA on fibrin-coated plates, competitor Fn (2.3 nM)
[2] = molecular target: fibrin (fibrinogen dried on microtiter wells and converted with thrombin); experiment: competitive ELISA on fibrin-coated wells, competitor biotinylated Fn (2.3 nM)
[3] = molecular target: fibrin (fibrinogen dried on microtiter wells and converted with thrombin); experiment: competitive ELISA on fibrin-coated plates, competitor Fn (2.3 nM), 5,000 molar excess
[4] = molecular target: fibrin (fibrinogen dried on microtiter wells and converted with thrombin); experiment: competitive ELISA on fibrin-coated plates, competitor Fn
[5] = molecular target: fibrin (fibrinogen dried on microtiter wells and converted with thrombin); experiment: competitive ELISA against intact Fn on fibrin

B1: recombinant ^1 F1 module of fibronectin (peptide)
chain: [pGlu]AQQMVQPQSPVAVSQSKPGCYDNGKHYQINQQWERTYLGNALVCTCYGGSRGFNCESKPE
modifications: not fully specified (bridges); also: major species lacks N-terminal Gln-Ala, its new N-terminal Gln also pyroglutamate
Question: B1 was tested. Which % inhibition of Fn binding [1] did it give?
Answer: < 20%

B2: recombinant ^1 F1.^2 F1 module pair of fibronectin (peptide)
chain: QAQQMVQPQSPVAVSQSKPGCYDNGKHYQINQQWERTYLGNALVCTCYGGSRGFNCESKPEAEETCFDKYTGNTYRVGDTYERPKDSMIWDCTCIGAGRGRISCTI
modifications: N-terminal pyroglutamate; the major species lacks the NH2-terminal Gln-Ala dipeptide and its new N-terminal Gln is also pyroglutamate
Question: With B2 as the binder, how does the % inhibition of biotinylated Fn binding [2] read?
Answer: 15%

Question: What about the % inhibition of Fn binding [3] of the same binder?
Answer: < 20%

Question: What does the source list for CRDEKTQMIYQQHQSWLRPVLRSNRVEYCWCNSGRAQCH (not fully specified (bridges); cysteine pairing not given here) [t-PA type 1 module]?
Answer: % inhibition of fibronectin binding [4]: 55%; % inhibition (so in the source) [5]: 45%
